Consider three sequences from the supplement of paper PMC5998384.

Data set [1] concerns HeLa Kyoto. Put plainly: thermal stability score vs G1/S (z-score of summed log2 fold changes over temperatures); higher = more thermally stable than in G1/S.
Data set [2] relates to HeLa Kyoto. Put plainly: solubility in G1/S (NP-40 vs SDS abundance) (log2 ratio); higher = more soluble. The conditions noted are these: cell cycle stage: G1/S.
Data set [3] has as its system HeLa Kyoto. Kind of data set: melting temperature (median over replicates), in situ; higher = more thermally stable.
For data set [4], the system named is HeLa Kyoto. Kind of data set: solubility change mitosis vs G1/S (difference of NP-40 vs SDS log2 ratios) (log2 ratio difference); higher = more soluble in mitosis.
The mark [5] stands for this setting: cell cycle stage: early G1 (4.5 h after nocodazole release).
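Throughout, for melting temperature (median over replicates), in situ: HeLa Kyoto cells synchronized by double thymidine or nocodazole block, proteins quantified by TMT10plex mass spectrometry, three independent biological replicates.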
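Throughout, for solubility change mitosis vs G1/S (difference of NP-40 vs SDS log2 ratios): synchronized HeLa Kyoto cells (double thymidine block for G1/S, nocodazole release for mitosis), protein amounts in NP-40 versus SDS lysates quantified by mass spectrometry, three biological replicates.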
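Throughout, for solubility in G1/S (NP-40 vs SDS abundance): HeLa Kyoto cells arrested at G1/S by double thymidine block, proteins quantified by TMT10plex mass spectrometry in mild NP-40 versus SDS extracts, three biological replicates.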
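Throughout, for thermal stability score vs G1/S (z-score of summed log2 fold changes over temperatures): synchronized HeLa Kyoto cells, proteins quantified by TMT10plex mass spectrometry, three biological replicates, mitosis taken 0.5 h after nocodazole release, G1/S directly after double thymidine block.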

On to “MEPRPTAPSSGAPGLAGVGETPSAAALAAARVELPGTAVPSVPEDAAPASRDGGGVRDEGPAAAGDGLGRPLGPTPSQSRFQVDLVSENAGRAAAAAAAAAAAAAAAGAGAGAKQTPADGEASGESEPAKGSEEAKGRFRVNFVDPAASSSAEDSLSDAAGVGVDGPNVSFQNGGDTVLSEGSSLHSGGGGGSGHHQHYYYDTHTNTYYLRTFGHNTMDAVPRIDHYRHTAAQLGEKLLRPSLAELHDELEKEPFEDGFANGEESTPTRDAVVTYTAESKGVVKFGWIKGVLVRCMLNIWGVMLFIRLSWIVGQAGIGLSVLVIMMATVVTTITGLSTSAIATNGFVRGGGAYYLISRSLGPEFGGAIGLIFAFANAVAVAMYVVGFAETVVELLKEHSILMIDEINDIRIIGAITVVILLGISVAGMEWEAKAQIVLLVILLLAIGDFVIGTFIPLESKKPKGFFGYKSEIFNENFGPDFREEETFFSVFAIFFPAATGILAGANISGDLADPQSAIPKGTLLAILITTLVYVGIAVSVGSCVVRDATGNVNDTIVTELTNCTSAACKLNFDFSSCESSPCSYGLMNNFQVMSMVSGFTPLISAGIFSATLSSALASLVSAPKIFQALCKDNIYPAFQMFAKGYGKNNEPLRGYILTFLIALGFILIAELNVIAPIISNFFLASYALINFSVFHASLAKSPGWRPAFKYYNMWISLLGAILCCIVMFVINWWAALLTYVIVLGLYIYVTYKKPDVNWGSSTQALTYLNALQHSIRLSGVEDHVKNFRPQCLVMTGAPNSRPALLHLVHDFTKNVGLMICGHVHMGPRRQAMKEMSIDQAKYQRWLIKNKMKAFYAPVHADDLREGAQYLMQAAGLGRMKPNTLVLGFKKDWLQADMRDVDMYINLFHDAFDIQYGVVVIRLKEGLDISHLQGQEELLSSQEKSPGTKDVVVSVEYSKKSDLDTSKPLSEKPITHKVEEEDGKTATQPLLKKESKGPIVPLNVADQKLLEASTQFQKKQGKNTIDVWWLFDDGGLTLLIPYLLTTKKKWKDCKIRVFIGGKINRIDHDRRAMATLLSKFRIDFSDIMVLGDINTKPKKENIIAFEEIIEPYRLHEDDKEQDIADKMKEDEPWRITDNELELYKTKTYRQIRLNELLKEHSSTANIIVMSLPVARKGAVSSALYMAWLEALSKDLPPILLVRGNHQSVLTFYS [SLC12A2]”, for which the thermal stability score was 1.53 with HeLa Kyoto [1] (setting [5]) and 1.39 with HeLa Kyoto [1] (cell cycle stage: mitosis). In the data set with HeLa Kyoto [2], the “solubility in G1/S (log2)” value is -0.0146. Besides, the melting temperature with HeLa Kyoto [3] (cell cycle stage: G1/S) was determined as 53.4 °C; with HeLa Kyoto [3] (cell cycle stage: mitosis), 53.3 °C. For the same sequence, the “solubility change mitosis (log2)” value in the data set on HeLa Kyoto [4] was -0.137.
On to “MERAVQGTDGGGGSNSSSRSSSRATSAGSSPSCSLAGRGVSSRSAAAGLGGGGSRSSPGSVAASPSGGGGRRREPALEGVLSKYTNLLQGWQNRYFVLDFEAGILQYFVNEQSKHQKPRGVLSLSGAIVSLSDEAPHMLVVYSANGEMFKLRAADAKEKQFWVTQLRACAKYHMEMNSKSAPSSRSRSLTLLPHGTPNSASPCSQRHLSVGAPGVVTITHHKSPAAARRAKSQYSGQLHEVREMMNQVEGQQKNLVHAIESLPGSGPLTALDQDLLLLKATSAATLSCLGECLNLLQQSVHQAGQPSQKPGASENILGWHGSKSHSTEQLKNGTLGSLPSASANITWAILPNSAEDEQTSQPEPEPNSGSELVLSEDEKSDNEDKEETELGVMEDQRSIILHLISQLKLGMDLTKVVLPTFILEKRSLLEMYADFMAHPDLLLAITAGATPEERVICFVEYYLTAFHEGRKGALAKKPYNPIIGETFHCSWEVPKDRVKPKRTASRSPASCHEHPMADDPSKSYKLRFVAEQVSHHPPISCFYCECEEKRLCVNTHVWTKSKFMGMSVGVSMIGEGVLRLLEHGEEYVFTLPSAYARSILTIPWVELGGKVSINCAKTGYSATVIFHTKPFYGGKVHRVTAEVKHNPTNTIVCKAHGEWNGTLEFTYNNGETKVIDTTTLPVYPKKIRPLEKQGPMESRNLWREVTRYLRLGDIDAATEQKRHLEEKQRVEERKRENLRTPWKPKYFIQEGDGWVYFNPLWKAH [OSBPL10]”, for which the values for the thermal stability score in the data set on HeLa Kyoto [1] (setting [5]) and in the data set on HeLa Kyoto [1] (cell cycle stage: mitosis) were -0.0143 and -0.526, respectively. Besides, in the data set with HeLa Kyoto [2], the “solubility in G1/S (log2)” value is 0.0171. Moreover, the melting temperature was 48.6 °C with HeLa Kyoto [3] (cell cycle stage: G1/S) and 51 °C with HeLa Kyoto [3] (cell cycle stage: mitosis). Also, the “solubility change mitosis (log2)” value in the data set with HeLa Kyoto [4] was found to be 0.13.
Turning to “MERFRLEKKLPGPDEEAVVDLGKTSSTVNTKFEKEELESHRAVYIGVHVPFSKESRRRHRHRGHKHHHRRRKDKESDKEDGRESPSYDTPSQRVQFILGTEDDDEEHIPHDLFTEMDELCYRDGEEYEWKETARWLKFEEDVEDGGDRWSKPYVATLSLHSLFELRSCILNGTVMLDMRASTLDEIADMVLDNMIASGQLDESIRENVREALLKRHHHQNEKRFTSRIPLVRSFADIGKKHSDPHLLERNGEGLSASRHSLRTGLSASNLSLRGESPLSLLLGHLLPSSRAGTPAGSRCTTPVPTPQNSPPSSPSISRLTSRSSQESQRQAPELLVSPASDDIPTVVIHPPEEDLEAALKGEEQKNEENVDLTPGILASPQSAPGNLDNSKSGEIKGNGSGGSRENSTVDFSKVDMNFMRKIPTGAEASNVLVGEVDFLERPIIAFVRLAPAVLLTGLTEVPVPTRFLFLLLGPAGKAPQYHEIGRSIATLMTDEIFHDVAYKAKDRNDLLSGIDEFLDQVTVLPPGEWDPSIRIEPPKSVPSQEKRKIPVFHNGSTPTLGETPKEAAHHAGPELQRTGRLFGGLILDIKRKAPFFLSDFKDALSLQCLASILFLYCACMSPVITFGGLLGEATEGRISAIESLFGASLTGIAYSLFAGQPLTILGSTGPVLVFEKILYKFCRDYQLSYLSLRTSIGLWTSFLCIVLVATDASSLVCYITRFTEEAFAALICIIFIYEALEKLFDLGETYAFNMHNNLDKLTSYSCVCTEPPNPSNETLAQWKKDNITAHNISWRNLTVSECKKLRGVFLGSACGHHGPYIPDVLFWCVILFFTTFFLSSFLKQFKTKRYFPTKVRSTISDFAVFLTIVIMVTIDYLVGVPSPKLHVPEKFEPTHPERGWIISPLGDNPWWTLLIAAIPALLCTILIFMDQQITAVIINRKEHKLKKGAGYHLDLLMVGVMLGVCSVMGLPWFVAATVLSISHVNSLKVESECSAPGEQPKFLGIREQRVTGLMIFILMGLSVFMTSVLKFIPMPVLYGVFLYMGVSSLKGIQLFDRIKLFGMPAKHQPDLIYLRYVPLWKVHIFTVIQLTCLVLLWVIKVSAAAVVFPMMVLALVFVRKLMDLCFTKRELSWLDDLMPESKKKKEDDKKKKEKEEAERMLQDDDDTVHLPFEGGSLLQIPVKALKYSPDKPVSVKISFEDEPRKKYVDAETSL [SLC4A7]”, the thermal stability score in the data set with HeLa Kyoto [1] (setting [5]) is -0.753; with HeLa Kyoto [1] (cell cycle stage: mitosis), 1.69. Also, the “solubility in G1/S (log2)” value in the data set with HeLa Kyoto [2] was -0.196. For the same sequence, the melting temperature in the data set with HeLa Kyoto [3] (cell cycle stage: G1/S) was determined as 54.4 °C; in the data set with HeLa Kyoto [3] (cell cycle stage: mitosis), 53.6 °C. In the data set with HeLa Kyoto [4], the “solubility change mitosis (log2)” value was found to be 0.0133.
